Results: paper PMC5974088 (2018)
Where no end group is shown, it is not given here. Me2 = dimethyl-lysine

What was measured:
Experiment in all cases: ITC
53BP1 Tudor Y1502A = 53BP1 Tudor Y1502A (H. sapiens, UniProt Q12888 1484-1603, Y1502A)
53BP1 Tudor W1495A = 53BP1 Tudor W1495A (H. sapiens, UniProt Q12888 1484-1603, W1495A)
53BP1 Tudor Y1523A = 53BP1 Tudor Y1523A (H. sapiens, UniProt Q12888 1484-1603, Y1523A)
53BP1 Tudor Y1523S = 53BP1 Tudor Y1523S (H. sapiens, UniProt Q12888 1484-1603, Y1523S)
53BP1 Tudor D1521A = 53BP1 Tudor D1521A (H. sapiens, UniProt Q12888 1484-1603, D1521A)
53BP1 Tudor Y1500A = 53BP1 Tudor Y1500A (H. sapiens, UniProt Q12888 1484-1603, Y1500A)
[1] = biological target: T1, 53BP1 tandem Tudor domain (1484-1603) (H. sapiens, UniProt Q12888 1484-1603)
T1 chain: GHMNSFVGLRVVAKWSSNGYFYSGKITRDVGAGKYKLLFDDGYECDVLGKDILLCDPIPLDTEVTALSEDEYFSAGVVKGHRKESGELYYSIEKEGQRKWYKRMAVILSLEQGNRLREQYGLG

53BP1 Tudor D1521A, sequence (Q12888 other isoform, or with tags, fused parts or gaps D1521A | D1521A): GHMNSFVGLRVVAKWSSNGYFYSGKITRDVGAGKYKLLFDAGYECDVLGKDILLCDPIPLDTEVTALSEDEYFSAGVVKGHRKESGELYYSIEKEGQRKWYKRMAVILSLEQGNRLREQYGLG
53BP1 Tudor W1495A, sequence (Q12888 other isoform, or with tags, fused parts or gaps W1495A | W1495A): as the sequence (Q12888 other isoform, or with tags, fused parts or gaps D1521A | D1521A) above, with W15A, A41D counted along it
53BP1 Tudor Y1500A, sequence (Q12888 other isoform, or with tags, fused parts or gaps Y1500A | Y1500A): as the sequence (Q12888 other isoform, or with tags, fused parts or gaps D1521A | D1521A) above, with Y20A, A41D counted along it
53BP1 Tudor Y1502A, sequence (Q12888 other isoform, or with tags, fused parts or gaps Y1502A | Y1502A): as the sequence (Q12888 other isoform, or with tags, fused parts or gaps D1521A | D1521A) above, with Y22A, A41D counted along it

**Q.** What does the source list for KRHRK(Me2)VLRDN [H4K20me2]?
**A.** Kd (53BP1 Tudor Y1502A): 151 µM; Kd (53BP1 Tudor W1495A): > 1500 µM; Kd (53BP1 Tudor Y1523A): 7.8 µM; Kd (53BP1 Tudor Y1523S): 65.8 µM; Kd (53BP1 Tudor D1521A): > 1500 µM; Kd (53BP1 Tudor Y1500A): 163 µM; Kd [1]: 19.7 µM
